doi:10.1101/2020.03.27.012328 (bioRxiv, 2020)

Biological target: CID1R^ML (maximum likelihood reconstructed ancestral CID from the time of the first whole genome duplication)
Experiment: ITC

Binder: TPPQALQQLLQTLKSPSSPQQQQQVLQILKSNPQLMAAFIKQRSQHQQ (domain or fragment) [NCBDD/P of the ITC example in Figure S1e (label lost)]
- Kd: 2900 ± 100 nM
